Measured values: PMC7197785 (PLoS Pathogens, 2020)

Columns and labels:
[1] = molecular target: HisEhC2B121 (E. histolytica); test: ITC
[2] = molecular target: T1, MBPEhC2BHis (E. histolytica, UniProt C4M344 1-208); test: ITC; conditions: both partners purified
T1 construct: also called EhC2B full-length; not shown: MBP, N-terminal, kept; His-tag, C-terminal, kept
T1 sequence: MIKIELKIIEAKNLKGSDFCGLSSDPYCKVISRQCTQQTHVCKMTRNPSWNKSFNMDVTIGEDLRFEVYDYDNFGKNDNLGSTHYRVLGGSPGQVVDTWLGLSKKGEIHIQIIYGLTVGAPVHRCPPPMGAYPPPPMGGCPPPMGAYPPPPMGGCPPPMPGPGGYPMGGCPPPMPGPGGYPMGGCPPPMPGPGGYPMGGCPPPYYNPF

B1: GSTEhRab21 (enzyme)
chain: MENEFKVVLLGEGKVGKTSMILRYTQNFFTPEEGPRTTQASYVSKTLNIDKNDYIINIWDTAGQEKYQALTPIYYRDSQGAILVYDITEPRSFQRVQTEVDNIRDMLGDSCCIVIVGNKMDLVQQRKISKEEADKYAESVKAIHYLCSCATGDGISDVFEGLTKQMVDKRKSLGDDELFDRKKSTLVFQDDKNNTRQAKSDCC
notes: also called GppNHp-GSTEhRab21; GDP-GSTEhRab21; source: recombinant, purified
Ka [1]: 9.6e+06 M⁻¹
dH [1]: -15.6 kcal/mol
stoichiometry N [1]: 1
Ka [2]: 1.24e+07 M⁻¹
dH [2]: -9.23 kcal/mol
stoichiometry N [2]: 1
